From patent US8481032B2, “Lipocalin-2 antibodies for methods of treatment” (The University of Hong Kong, priority 2006, dated 2013)

What was measured:
T2DM patients = assay: Rosiglitazone treatment of T2DM patients: serum lipocalin-2 and metabolic parameters; type: in vivo, human; conditions: 32 T2DM patients, rosiglitazone 4 mg twice daily, 8 weeks
Description: The affinity-purified anti-human or anti-murine lipocalin-2 IgG was biotinylated with a kit from Pierce and used as the detection antibodies. The unlabeled anti-human or anti-murine lipocalin-2 IgG was used for coating a 96-well microtiter plate overnight at 4° C. Human or mouse serum was diluted (1:50) into PBS, and 100 μl of the diluted samples or recombinant standards were applied to each well and incubated at 37° C. for 1 h. The plates were washed three times and then incubated with 100 μl of the detection antibody for another 2 h. After washing for another three times with PBS, the wells were incubated with streptavidin-conjugated horseradish peroxidase for 1 h and subsequently reacted with tetramethyl-benzidine reagent for 15 min. A total of 100 μl of 2 M H2SO4 was added to each well to stop the reaction, and the absorbance at 450 nm was measured. The intra- and inter-assay coefficients of variance were determined by measuring five serum samples in a total of six independent assays with duplicate determinations.
The effect of rosiglitazone on serum levels of lipocalin-2 was investigated in 32 T2DM patients (see Example 2) treated with this drug (4 mg twice daily) for 8 weeks.

L6 myotubes [1] = assay: Fatty acid uptake, fatty acid oxidation and triglyceride accumulation in L6 myotubes; type: cell-based, rat
Source text: FIG. 5A is a bar graph of […] ^3H-palmitate uptake (fold over control) in differentiated L6 myotubes treated with the indicated concentrations of lipocalin-2 or vehicle for 48 hr. FIG. 5B is a bar graph of ^14C-oleate oxidation (fold over control) in differentiated L6 myotubes treated with the indicated concentrations of lipocalin-2 or vehicle for 48 hr. Fatty acid oxidation was quantified by the production of ^14CO2 from [1-^14C]oleate. * P<0.05; ** P<0.01 versus untreated cells.
(§1) Rat L6 skeletal myoblasts were grown in α-minimum essential medium (αMEM) containing 10% (v/v) FBS and 1% antibiotic solution (100 units/ml penicillin, 100 μg/ml streptomycin, 250 ng/ml amphotericin B) in a humidified atmosphere of 95% air and 5% CO2 at 37° C. For differentiation to myotubes, cells were cultured in αMEM containing 2% (v/v) FBS for 5-7 days.
[^3H]-palmitic acid (Amersham, Quebec, Canada) was used to determine fatty acid uptake as previously described (Bastie, C. C., et al. Diabetes, 53:2209-2216 (2004)). with slight modifications. […] After treatments, culture medium was removed and cells washed twice with wash buffer (140 mM NaCl, 20 mM HEPES-Na, 2.5 mM MgSO4, 1 mM CaCl2, 5 mM KCl pH 7.4, 0.1% defatted albumin) and once with HEPES buffer. Cells were subsequently incubated with transport solution (10 μM defatted albumin, 0.5 μCi/ml [^3H]-palmitic acid; FA:BSA ratio=2) for 1 minute at room temperature. Then the reaction was stopped by washing with pre-cold stop buffer (140 mM NaCl, 20 mM HEPES-Na, 2.5 mM MgSO4, 1 mM CaCl2, 5 mM KCl pH 7.4) Non-specific uptake was measured in the presence of excess palmitate (2 mM) and subtracted from all other values. Cells were then lysed with 1 M KOH and aliquots were transferred to scintillation vials for ^3H radioactivity counting.

C57 mice = assay: Chronic treatment of C57 mice with recombinant lipocalin-2: body weight, food intake, metabolic parameters, ipGTT and ITT; type: in vivo, mouse
Description: Fasting (16 hr) plasma glucose levels and triglyceride (TG) concentrations were measured by using a Glucose (GO) assay kit (Sigma) and Triglyceride GPO reagent (Pointe Scientific Inc., Lincoln Park, Mich., USA) respectively. Fasting serum insulin concentrations were quantified by using the commercial ELISA kits from Mercodia AB (Uppsala, Sweden). Serum total cholesterol and free fatty acids (FFAs) were analyzed by using the kits from Wako (Richmond, Va., USA) and Roche Diagnostics respectively. TG contents in liver and soleus muscle were analyzed as described elsewhere (Ellis, B. A et al., Am J Physiol Endocrinol Metab. 279:E554-560 (2000); Xu, A., et al. J Clin Invest 112:91-100 (2003)).
For ipGTT, overnight fasted mice (16 hr) were given a glucose load by intraperitoneal injection (1 g glucose/kg body weight). For ITT, mice were starved for 6 h, and then intraperitonally injected with insulin (1 U/kg body weight). Plasma glucose levels were measured at different time points as indicated.
(§2) To evaluate the effect of lipocalin-2 on glucose homeostasis and insulin sensitivity, normal C57 mice were treated with murine lipocalin-2 by intraperitoneal injection of the recombinant protein (5 mg protein/kg body weight, twice a day at 12 hr intervals).

[2] = tested on: genes involved in glucose and lipid metabolism in skeletal muscle and liver; assay: mRNA expression of genes involved in glucose and lipid metabolism in skeletal muscle and liver of lipocalin-2-treated mice; type: in vivo, mouse; conditions: versus vehicle
Description: Total RNA was isolated from mouse liver, epididymal adipose tissue and soleus muscle using the RNeasy kit (Qiagen). Subsequently, mRNA was reverse transcribed into cDNA using the oligo-dT primer (Roche). The relative gene abundance was quantified by Taqman real-time PCR using the pre-developed assay kits (Applied Biosystems, Foster city, CA). The reactions were performed on the ABI 7000 sequence detection system.
as §2
The effects of lipocalin-2 on mRNA expression of several genes involved in glucose and lipid metabolism in skeletal muscle and liver were investigated (FIGS. 4A-4B).

L6 myotubes [3] = assay: 2-deoxyglucose uptake in L6 myotubes; type: cell-based, rat
Description: FIG. 6 is a bar graph of 2-deoxyglucose uptake (arbitrary units) in L6 myotubes treated without or with indicated concentrations of lipocalin-2 for 48 hr, and then stimulated without or with insulin for another 20 min. The rate of glucose uptake was measured by uptake of 2-deoxy-D-[^3H]glucose. * P<0.05 versus untreated cells; # P<0.05 versus cells treated with insulin alone (n=4-6).
as §1
Cells were incubated with various concentration of lipocalin-2 for 20 h, subsequently serum-starved in the continued presence of lipocalin-2 for the final 4 h in 24-well plates prior to further treatment. Cells were then washed twice with PBS and treated with insulin or vehicle for 15 min. After treatments, glucose uptake was determined. Briefly, cells were incubated in transport solution (140 mM NaCl, 20 mM HEPES-Na, 2.5 mM MgSO4, 1 mM CaCl2, 5 mM KCl and 0.5 μCi/ml 2-deoxy-D-[^3H]glucose, pH 7.4) for 5 min at room temperature. Nonspecific uptake was measured in the presence of cytochalasin B (10 μM). Cells were then lysed with 1 M KOH, and aliquots were transferred to scintillation vials for ^3H radioactivity counting.

[4] = L6 myotubes, acute treatment within 2 hr (data not shown)
[5] = fasting, recombinant lipocalin-2 5 mg/kg i.p. twice a day, 4 weeks
[6] = recombinant lipocalin-2 5 mg/kg i.p. twice a day, 4 weeks
[7] = liver tissue of lipocalin-2-treated mice
[8] = skeletal muscle of lipocalin-2-treated mice

CN(CCOc1ccc(CC2SC(=O)NC2=O)cc1)c1ccccn1 (centres unmarked) [rosiglitazone]
Body Mass Index (T2DM patients): 25.5 ± 3.6 Kg/m^2
Fasting Glucose (T2DM patients): 6.8 ± 1.2 mM
Fasting Insulin (T2DM patients): 7.9 ± 3.5 mIU/l
HOMA-IR (T2DM patients): 2.4 ± 1.2
Lipocalin-2 (serum level) (T2DM patients): 61.9 ± 25.9 ng/mL

B1: Lipocalin-2: recombinant murine lipocalin-2 expressed in BL21 cells, His6 tag and endotoxin removed (protein)
chain: QDSTQNLIPAPSLLTVPLQPDFRSDQFRGRWYVVGLAGNAVQKKTEGSFTMYSTIYELQENNSYNVTSILVRDQDQGCRYWIRTFVPSSRAGQFTLGNMHRYPQVQSYNVQVATTDYNQFAMVFFRKTSENKQYFKITLYGRTKELSPELKERFTRFAKSLGLKDDNIIFSVPTDQCIDN
modifications: left off: small tags and cut ends
notes: recombinant murine lipocalin-2 expressed in BL21 cells, His6 tag and endotoxin removed
triglyceride accumulation, increase compared with untreated cells (L6 myotubes [1]; L6 myotubes at 72 hr following lipocalin-2 treatment, n=4, p<0.05): 1.51±0.58 folds
fatty acid uptake and oxidation, acute treatment (L6 myotubes [1]; [4]): no obvious effects
fatty acid uptake (L6 myotubes [1]; L6 myotubes, prolonged incubation with lipocalin-2 (24 h and 48 h), 3H-palmitate): significant increase
rate of fatty acid oxidation (L6 myotubes [1]; L6 myotubes, prolonged incubation with lipocalin-2 (24 h and 48 h), 14C-oleate): decrease
daily average of serum lipocalin-2 levels, higher than that of the endogenous protein (C57 mice; 5 mg protein/kg i.p. twice a day at 12 hr intervals): 2.2-3.5 folds
Plasma glucose (C57 mice; [5]): 137.4 ± 11.6 mg/dL
Plasma insulin (C57 mice; [5]): 1.5 ± 0.04 ng/mL
Serum TG (C57 mice; [5]): 93.9 ± 8.9 mg/dL
glucose tolerance (ipGTT) (C57 mice; long-term lipocalin-2 treatment, day 24, 1 g glucose/kg i.p.): induced glucose intolerance
insulin sensitivity (ITT) (C57 mice; long-term lipocalin-2 treatment, day 26, insulin 1 U/kg i.p.): decreased insulin sensitivity
Serum FFAs (C57 mice; [6]): 0.72 ± 0.08 mmol/L
Serum adiponectin (C57 mice; [6]): 7.9 ± 1.8 µg/mL
Serum total cholesterol (C57 mice; [6]): 101.4 ± 8.8 mg/dL
TG contents in liver (C57 mice; [6]): 6.9 ± 0.8 mg/g tissue
TG contents in muscle (C57 mice; [6]): 7.3 ± 0.8 mg/g tissue
expression of glucose-6-phosphatase (G6P) [2, 7]: modest, but significant increase
expression of phosphoenolpyruvate carboxylase (PEPCK) [2, 7]: modest, but significant increase
expression of several genes involved in fatty acid transport, synthesis and oxidation [2, 7]: did not modulate
expression of GLUT1 [2, 8]: decreased
expression of GLUT4, acetyl CoA carboxylase (ACO) and several other fatty acid transport proteins (FATP2, 3 and 5, and CD36) [2, 8]: did not affect
expression of acyl-CoA oxidase [2, 8]: inhibited
expression of uncoupling protein 2 (UCP2) [2, 8]: inhibited
steady-state mRNA level of fatty acid transport protein 1 (FATP-1) [2, 8]: significantly increased
steady-state mRNA level of fatty acid transport protein 4 (FATP-4) [2, 8]: significantly increased
basal glucose uptake (L6 myotubes [3]; L6 myotubes at 48 hr after lipocalin-2 treatment): significantly decreased
basal and insulin-stimulated glucose uptake, acute treatment (L6 myotubes [3]; [4]): no obvious effects
magnitude of insulin-stimulated increase in glucose uptake, versus untreated cells (L6 myotubes [3]; L6 myotubes, lipocalin-2-treated, not statistically significant): slightly lower
